According to article PMC2552378:

B1: TbC/EK2 (Trypanosoma brucei brucei TREU927) (protein)
chain: MALRPFPLGNTPLHAVIRRSAREFECVEAVPASNAVRSPSTASWVSAESLDSIISLANRTSEEMEVDQLIYRLCRSLYHVAKKKSAQIHCHPNHQERQQQQQQASSSGWRSVECEGHFSNMRGREDWCPLLHLFDPRSYYKVMGQPSQHDGCKLCGDVVGTESSPEGVSQWLMSELSVTRLTGGNSNHVYRLGHASFPKKAVLLRVYGDGGGGDVIDRARDIKVMRLMSKSEMGPGLLHTFHWGRVEEFMDGVLTCTTEKLLTSPSLLADVYGGLSKMHQLDYTPLLPENMRTKGMSNGHNSSQSVSDTVSKSGGGQEGPDGTVGGVNELESTCHTSFERVCLRLLRLVSLNVVEEHRHSLESWLAGEVMFVRRELQYRGIPVVLSHNDLNPGNILLSDGAGEASGTVFSDEELRVENTPLSKRYVTRKGKNMNLVERRGFLFIDFEYADANYRCFDLGNTLCELDYDYTRGTEAGGRGFIKYLFVFPPPAMEEAWRGLGEEYPRMPELIYDAWRRGVCDGSSDIGSVALLAVRRYFAERDNVPLETVELSEAQVGEVLLGMLASHLYWTIWSMTMGSAPDNCVECEDCDDQMFAVGGSGLDYMRYGECRLREYIALRGWLAEKGLLS
B2: TbEK1 (formerly TbC/EK1) (Trypanosoma brucei brucei TREU927) (protein)
chain: MEVAVGHVRHVPCTVPDDPASRMRAIREIVARHCALFMQKGGDVGRSQCASNLGNNITSGTSNGFDADRLQVVAFSGGITNEMYHVYCEGWEAHSVVMRIFGKETERVISRGDELFYQSLFIPTYVRGQNFLVYQYLYQYEPLPFVEMVKEYEKIARGIAFFHVRATLEARSDYSVTPVGGVVGAGGATVGPTNTCSRFDLEENYIVHSLTEWVEQALSETVQEKVDATKRATYASVAQQLKEEAQWLLPLMQRHSPELGESTCHNDLLSGNIMRQKSDGALKIIDFEYAKRNYFLFDIANHFNEYTGLECDYATYFPSEEHMKKFVTTYMCAMREELEKHAEEAKRRQLTDIIPGQQHFFMCDVGGVEGDKRIHRMVQLVKLLTLASHLSWSVWALLQEAVSKTDMDFLRYSQLRLSRYLETRKEFSASS

Assays:
Experiment in all cases: purified protein
purified protein [1] = substrate: Nc1ncnc2c1ncn2[C@@H]1O[C@H](COP(=O)(O)OP(=O)(O)OP(=O)(O)O)[C@@H](O)[C@H]1O; conditions: 6 mM MgCl2, 150 mM KCl, 50 mM Mops pH 7.8
purified protein [2] = substrate: C[N+](C)(C)CCO; assay type: biochemical, Trypanosoma brucei; conditions: 5 mM ATP, 6 mM MgCl2, 150 mM KCl, 50 mM Mops pH 7.8
purified protein [3] = substrate: NCCO; assay type: biochemical, Trypanosoma brucei; conditions: 5 mM ATP, 6 mM MgCl2, 150 mM KCl, 50 mM Mops pH 7.8

| Protein | Km (purified protein [1]; 2 mM choline) [µM] | kcat (purified protein [1]; 2 mM choline) [s⁻¹] | kcat/Km (purified protein [1]; 2 mM choline) [M⁻¹ s⁻¹] | Km (purified protein [2]) [µM] | kcat (purified protein [2]) [s⁻¹] | kcat/Km (purified protein [2]) [M⁻¹ s⁻¹] | Km (purified protein [3]) [µM] | kcat (purified protein [3]) [s⁻¹] | kcat/Km (purified protein [3]) [M⁻¹ s⁻¹] | Km (purified protein [1]; 2 mM ethanolamine) [µM] | kcat (purified protein [1]; 2 mM ethanolamine) [s⁻¹] | kcat/Km (purified protein [1]; 2 mM ethanolamine) [M⁻¹ s⁻¹] |
| --- | --- | --- | --- | --- | --- | --- | --- | --- | --- | --- | --- | --- |
| B1 | 20.6 ± 1.96 | 12.91 | 627000 | 31.4 ± 2.6 | 12.91 | 411000 | 2560 ± 310 | 12.91 | 5040 |  |  |  |
| B2 |  |  |  |  |  |  | 18.4 ± 0.9 | 6.56 | 357000 | 219.2 ± 29 | 6.56 | 29900 |
